Measured values as given in the supplement of paper PMC10126150.
± gives the standard deviation of the averaged measurements.

Test system: ATP
Experiment: switch fluorescence ratio, 500 uM ATP over buffer (Cy3 cluster intensity, sum of 5 cycles each) (fold (ratio)); higher = stronger signal-on switching upon ATP binding; sequences stand for … in TCGTCGGCAGCGTCAGATGTGTATAAGAGACAGTTTTTTTTTTTTTTTTTTTTTTTTT…TC
Settings: aptamer strand: ATP DNA aptamer (quencher-CACCTGGGGGAGTATTGCGGAGGAAGG + anchor), 100 nM annealed; ATP concentration: 500 uM
Summary of the method: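 Cy3-labelled switching-strand clusters on a modified Illumina MiSeq flow-cell were annealed to 100 nM quencher-labelled ATP aptamer and imaged first in selection buffer, then after 15 min with 500 uM ATP at 22 °C. NaOH stripping and re-annealing separated each of five buffer/ATP cycles, and clusters outside 100-1000 RFU were excluded. The fluorescence ratio sums target-cycle Cy3 intensity over buffer-cycle Cy3 intensity per cluster and averages it per switch-domain sequence.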
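Also: ATP exposure 15 min at 22 °C before imaging.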

Point of comparison: GAGTGAGCTT, switch fluorescence ratio 0.966 ± 0.046. Against it:
- GAGGGAGGGA — within error, 1.03 ± 0.059
- GAGGGAGTCG — within error, 1.01 ± 0.022
- GAGGGAGTTT — within error, 0.987 ± 0.025
- GAGGGCGCTG — within error, 0.973 ± 0.011
- GAGGGCTAGG — within error, 0.997 ± 0.023
- GAGGGCTTGG — higher, 1.05 ± 0.016
- GAGGGGAACC — within error, 0.992 ± 0.032
- GAGGGGAGCG — within error, 0.969 ± 0.043
- GAGGGGATAG — within error, 1.03 ± 0.046
- GAGGGGATGT — within error, 0.978 ± 0.026
- GAGGGGCCGA — within error, 0.973 ± 0.016
- GAGGGGCGCG — within error, 0.997 ± 0.065
- GAGGGGCTTT — within error, 0.982 ± 0.018
- GAGGGGGCAC — within error, 1.03 ± 0.042
- GAGGGGGCGC — within error, 1.02 ± 0.031
- GAGGGGGCGG — within error, 0.999 ± 0.025
- GAGGGGGCGT — within error, 1.01 ± 0.04
- GAGGGGGCTA — within error, 1.02 ± 0.029
- GAGGGGGGAC — within error, 1.02 ± 0.032
- GAGGGGGGCA — within error, 0.977 ± 0.03
- GAGGGGGGGC — within error, 1.01 ± 0.07
- GAGGGGTCCA — within error, 0.974 ± 0.021
- GAGGGGTGCG — within error, 1.01 ± 0.025
- GAGGGGTTGG — within error, 0.964 ± 0.033
- GAGGGGTTGT — higher, 1.03 ± 0.013
- GAGGGTACGG — higher, 1.037 ± 0.0092
- GAGGGTATCG — within error, 0.984 ± 0.039
- GAGGGTCAAA — within error, 1.004 ± 0.01
- GAGGGTCATC — within error, 0.935 ± 0.056
- GAGGGTGAGT — within error, 0.9809 ± 0.0054
- GAGGGTGCGG — within error, 1.01 ± 0.027
- GAGGGTGGGC — within error, 1.03 ± 0.09
- GAGGGTGTAG — within error, 0.988 ± 0.018
- GAGGGTGTGG — within error, 1.02 ± 0.022
- GAGGGTTAGT — within error, 0.9866 ± 0.0066
- GAGGGTTGGC — within error, 0.95 ± 0.084
- GAGGGTTTGG — within error, 0.989 ± 0.037
- GAGGGTTTGT — within error, 0.973 ± 0.039
- GAGGTACCGC — higher, 1.05 ± 0.029
- GAGGTAGCGC — within error, 0.98 ± 0.01
- GAGGTATGGA — within error, 0.9842 ± 0.0019
- GAGGTATGTT — within error, 0.999 ± 0.02
- GAGGTCAAGG — within error, 0.987 ± 0.033
- GAGGTCATTC — within error, 0.999 ± 0.029
- GAGGTCGTAA — within error, 1.05 ± 0.051
- GAGGTGGCAG — within error, 1.0097 ± 0.00096
- GAGGTGTGGG — within error, 0.981 ± 0.016
- GAGGTGTTGC — within error, 0.985 ± 0.035
- GAGGTTAATA — higher, 1.04 ± 0.021
- GAGGTTATTA — within error, 1 ± 0.066
- GAGGTTGCTG — within error, 0.987 ± 0.026
- GAGGTTGTAC — within error, 1.02 ± 0.012
- GAGGTTTCAT — within error, 0.997 ± 0.016
- GAGTAAAACA — within error, 1.16 ± 0.27
- GAGTAAAGTT — within error, 0.982 ± 0.02
- GAGTAAGAGC — higher, 1.017 ± 0.0075
- GAGTAAGCGG — within error, 1.01 ± 0.048
- GAGTAAGGAC — higher, 1.09 ± 0.061
- GAGTAAGGTA — within error, 1.02 ± 0.024
- GAGTAAGTGG — within error, 0.99 ± 0.039
- GAGTAATCGG — within error, 1.01 ± 0.049
- GAGTACCCGG — within error, 1 ± 0.018
- GAGTAGAAGA — within error, 1.01 ± 0.035
- GAGTAGACGT — within error, 0.998 ± 0.049
- GAGTAGGGGT — within error, 1.01 ± 0.022
- GAGTATCTGC — within error, 1.01 ± 0.079
- GAGTATGCAT — within error, 0.984 ± 0.023
- GAGTATTCGG — within error, 0.998 ± 0.031
- GAGTATTGGG — within error, 0.9897 ± 0.0087
- GAGTATTGGT — within error, 0.9817 ± 0.0094
- GAGTATTTAA — within error, 0.964 ± 0.058
- GAGTCAAGGG — within error, 0.998 ± 0.021
- GAGTCAGGTA — within error, 1.01 ± 0.029
- GAGTCAGTGG — within error, 0.984 ± 0.012
- GAGTCCGCCT — higher, 1.6 ± 0.093
- GAGTCGAGGG — within error, 0.961 ± 0.017
- GAGTCGAGTG — within error, 1.01 ± 0.048
- GAGTCGGTGT — higher, 1.026 ± 0.0063
- GAGTCTAGCG — within error, 1.02 ± 0.064
- GAGTCTATTG — higher, 1.023 ± 0.0022
- GAGTCTGGGG — within error, 0.978 ± 0.049
- GAGTGAGTAG — within error, 0.9794 ± 0.0059
- GAGTGCGGGA — within error, 1.02 ± 0.044
- GAGTGCTCGA — within error, 1.01 ± 0.074
